B1: Azoarcus group I ribozyme (parent)
chain: GUGCCUUGCGCCGGGAAACCACGCAAGGGAUGGUGUCAAAUUCGGCGAAACCUAAGCGCCCGCCCGGGCGUAUGGCAACGCCGAGCCAAGCUUCGGCGCCUGCGCCGAUGAAGGUGUAGAGACUAGACGGCACCCACCUAAGGCAAACGCUAUGGUGAAGGCAUAGUCCAGGGAGUGGCGAAAGUCACACAAACCGG

Variants of B1 are the subject of the data set. Description: reverse-splicing fitness (ratio to wild type); higher = more active; in vitro selection; Mg2+ level not given. The method, boiled down: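 An in vitro group I ribozyme library with randomized positions was T7-transcribed and gel-purified. In triplicate, 10 pmol RNA in EPPS pH 7.5 was reacted with 50 pmoles of a 30-nt RNA substrate for 1 h at 37 °C across several added MgCl2 levels (1–48 mM), then stopped with EDTA. Products were reverse transcribed from a substrate-complementary primer, PCR-amplified and sequenced (HiSeq 4000). Fitness is a variant's read proportion after selection over that before, normalised to wild type.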
Turning to C82U A111U A120U A145U U176G, the reverse-splicing fitness is 0.00339.

For C82U A111U A120U A145U U176C, the reverse-splicing fitness was found to be 0.0111.

Regarding C82U A111U A120U C150G C169U, the reverse-splicing fitness was found to be 0.00478.

As for C82U A111U A120U C150G C169G, the reverse-splicing fitness came out at 0.00584.

With C82U A111U A120U C150G C169A, the reverse-splicing fitness was 0.00657.

For C82U A111U A145U C150G, the reverse-splicing fitness stood at 0.028.

As for C82U A111U A145U C150A, the reverse-splicing fitness was 0.0273.

C82U A111U A145U C150U: the reverse-splicing fitness stood at 0.183.

Turning to C82U A111U A120U U176A, the reverse-splicing fitness is 0.00769.

Consider C82U A111U A120U U176C, for which the reverse-splicing fitness amounted to 0.0117.

In the case of C82U A111U A120U U176G, the reverse-splicing fitness amounted to 0.00321.

Consider C82U A111U A120U C169U U176A, for which the reverse-splicing fitness worked out at 0.00357.

With C82U A111U A120U C169U U176G, the reverse-splicing fitness worked out at 0.0019.

Take C82U A111U A120U C169U U176C: the reverse-splicing fitness was 0.00325.

Take C82U A111U A145G C150A C169G U176G: the reverse-splicing fitness came out at 0.00627.

Turning to C82U A111U A145G C150A C169G U176A, the reverse-splicing fitness came out at 0.0146.

C82U A111U A145G C150A C169G U176C: the reverse-splicing fitness was determined as 0.0254.

As to C82U A111U A145U C150G C169A, the reverse-splicing fitness worked out at 0.00958.

For the variant C82U A111U A145U C150G C169G, the reverse-splicing fitness stood at 0.0071.

On to C82U A111U A145U C150G C169U, for which the reverse-splicing fitness turned out to be 0.00858.

In the case of C82U A111U A120U C150G U176G, the reverse-splicing fitness is 0.00237.

On to C82U A111U A120U C150G U176C, for which the reverse-splicing fitness amounted to 0.005.

C82U A111U A120U C150G U176A: the reverse-splicing fitness is 0.00352.

Take C82U A111U A145C C150G U176G: the reverse-splicing fitness came out at 0.00423.

Regarding C82U A111U A145C C150G U176C, the reverse-splicing fitness worked out at 0.0175.

Turning to C82U A111U A145C C150G U176A, the reverse-splicing fitness came out at 0.00994.

C82U A111U C150U C169U U176G: the reverse-splicing fitness worked out at 0.00625.

Regarding C82U A111U C150U C169U U176A, the reverse-splicing fitness is 0.0149.

For the variant C82U A111U C150U C169U U176C, the reverse-splicing fitness turned out to be 0.0152.

As to C82U A111U A145G C150U C169U U176C, the reverse-splicing fitness stood at 0.013.

As for C82U A111U A145G C150U C169U U176A, the reverse-splicing fitness is 0.0149.

On to C82U A111U A145G C150U C169U U176G, for which the reverse-splicing fitness turned out to be 0.00571.

Consider C82U A111U A120U A145U C169G U176C, for which the reverse-splicing fitness was determined as 0.00286.

On to C82U A111U A120U A145U C169G U176A, for which the reverse-splicing fitness came to 0.00244.

On to C82U A111U A120U A145U C169G U176G, for which the reverse-splicing fitness worked out at 0.00176.

On to C82U A111U C150A C169G U176C, for which the reverse-splicing fitness was 0.0217.

Regarding C82U A111U C150A C169G U176A, the reverse-splicing fitness turned out to be 0.0193.

For the variant C82U A111U C150A C169G U176G, the reverse-splicing fitness is 0.00717.

For the variant C82U A111U A145G C150U U176C, the reverse-splicing fitness was determined as 0.12.

With C82U A111U A145G C150U U176G, the reverse-splicing fitness turned out to be 0.0188.

Regarding C82U A111U A145G C150U U176A, the reverse-splicing fitness was 0.0765.

As for C82U A111U A145G C150G U176G, the reverse-splicing fitness came out at 0.00676.

In the case of C82U A111U A145G C150G U176C, the reverse-splicing fitness turned out to be 0.0196.

C82U A111U A145G C150G U176A: the reverse-splicing fitness stood at 0.0103.

For C82U A111U A145C C150A C169A U176G, the reverse-splicing fitness was 0.00585.

For the variant C82U A111U A145C C150A C169A U176A, the reverse-splicing fitness amounted to 0.00998.

Consider C82U A111U A145C C150A C169A U176C, for which the reverse-splicing fitness was found to be 0.00618.

On to C82U A111U A120U C169A, for which the reverse-splicing fitness amounted to 0.00267.

Regarding C82U A111U A120U C169G, the reverse-splicing fitness was determined as 0.00397.

With C82U A111U A120U C169U, the reverse-splicing fitness was 0.00477.

Consider C82U A111U C150G C169A, for which the reverse-splicing fitness is 0.00799.

Regarding C82U A111U C150G C169U, the reverse-splicing fitness stood at 0.0095.

Turning to C82U A111U C150G C169G, the reverse-splicing fitness was 0.00698.

Turning to C82U A111U A145C C150U C169U U176A, the reverse-splicing fitness came to 0.0134.

For the variant C82U A111U A145C C150U C169U U176G, the reverse-splicing fitness was 0.00525.

As for C82U A111U A145C C150U C169U U176C, the reverse-splicing fitness was 0.0076.

In the case of C82U A111U A145U C150U C169A U176A, the reverse-splicing fitness came out at 0.0113.

Regarding C82U A111U A145U C150U C169A U176G, the reverse-splicing fitness was determined as 0.00627.

On to C82U A111U A145U C150U C169A U176C, for which the reverse-splicing fitness stood at 0.00869.

Consider C82U A111U A145C C150U U176C, for which the reverse-splicing fitness was found to be 0.038.

With C82U A111U A145C C150U U176G, the reverse-splicing fitness worked out at 0.011.

Turning to C82U A111U A145C C150U U176A, the reverse-splicing fitness was 0.0276.

Turning to C82U A111U A145C C150U C169A U176G, the reverse-splicing fitness came out at 0.00651.

On to C82U A111U A145C C150U C169A U176C, for which the reverse-splicing fitness came to 0.00663.

Take C82U A111U A145C C150U C169A U176A: the reverse-splicing fitness came out at 0.0108.

Turning to C82U A111U C169A U176C, the reverse-splicing fitness stood at 0.02.

With C82U A111U C169A U176A, the reverse-splicing fitness was determined as 0.0141.

Take C82U A111U C169A U176G: the reverse-splicing fitness is 0.00543.

C82U A111U A145C C150G C169U U176C: the reverse-splicing fitness came out at 0.00969.

As for C82U A111U A145C C150G C169U U176A, the reverse-splicing fitness came out at 0.00804.

For the variant C82U A111U A145C C150G C169U U176G, the reverse-splicing fitness was found to be 0.00515.

Regarding C82U A111U A145U U176A, the reverse-splicing fitness stood at 0.112.

Take C82U A111U A145U U176C: the reverse-splicing fitness is 0.154.

Take C82U A111U A145U U176G: the reverse-splicing fitness is 0.0313.

On to C82U A120C A145C, for which the reverse-splicing fitness amounted to 0.149.

As to C82U A111U A145U C150U C169U U176G, the reverse-splicing fitness came out at 0.00582.

With C82U A111U A145U C150U C169U U176A, the reverse-splicing fitness was found to be 0.0148.

Take C82U A111U A145U C150U C169U U176C: the reverse-splicing fitness came out at 0.0115.

Turning to C82U A111U C150A C169U U176A, the reverse-splicing fitness worked out at 0.0198.

For the variant C82U A111U C150A C169U U176G, the reverse-splicing fitness stood at 0.0075.

As for C82U A111U C150A C169U U176C, the reverse-splicing fitness is 0.0152.

C82U A111U A145G C150A U176A: the reverse-splicing fitness is 0.0215.

Consider C82U A111U A145G C150A U176G, for which the reverse-splicing fitness stood at 0.00953.

For the variant C82U A111U A145G C150A U176C, the reverse-splicing fitness turned out to be 0.0426.

The values above are taken from the RNAGym collection of RNA variant scans (doi:10.1093/molbev/msab373).
